Test results taken from PMC4335062, “Data-Driven Prediction and Design of bZIP Coiled-Coil Interactions” (PLoS Computational Biology, 2015).
“And” between values parts separate entries of the source, which are not always exact repeats. Identical values can stand only once. Where no end group is shown, it is not given here.

How the values were obtained:
[1] = biological target: Activating Transcription Factor (ATF) 3 (human) (UniProt P18847); assay: FRET or BRET; direct-binding FRET in 384-well plates; rhodamine-labelled design (acceptor) titrated 0 to 1 uM into 10 nM fluorescein-labelled bZIP (donor); 150 mM KCl, 50 mM potassium phosphate pH 7.4, 0.1% Tween-20, 0.1% BSA; 4 °C
Sequence of Activating Transcription Factor (ATF) 3 (human) (P18847 whole entry): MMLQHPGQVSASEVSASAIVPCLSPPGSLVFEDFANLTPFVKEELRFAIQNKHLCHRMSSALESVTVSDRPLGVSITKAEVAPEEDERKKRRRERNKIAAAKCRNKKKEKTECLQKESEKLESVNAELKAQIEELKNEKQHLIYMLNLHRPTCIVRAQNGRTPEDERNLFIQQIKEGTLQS

DBP (human) = DBP (human) (UniProt Q10586); assay: as above
FOS [2] = biological target: T1, FOS (Homo sapiens, UniProt P01100); assay: as above
T1 sequence (P01100 whole entry): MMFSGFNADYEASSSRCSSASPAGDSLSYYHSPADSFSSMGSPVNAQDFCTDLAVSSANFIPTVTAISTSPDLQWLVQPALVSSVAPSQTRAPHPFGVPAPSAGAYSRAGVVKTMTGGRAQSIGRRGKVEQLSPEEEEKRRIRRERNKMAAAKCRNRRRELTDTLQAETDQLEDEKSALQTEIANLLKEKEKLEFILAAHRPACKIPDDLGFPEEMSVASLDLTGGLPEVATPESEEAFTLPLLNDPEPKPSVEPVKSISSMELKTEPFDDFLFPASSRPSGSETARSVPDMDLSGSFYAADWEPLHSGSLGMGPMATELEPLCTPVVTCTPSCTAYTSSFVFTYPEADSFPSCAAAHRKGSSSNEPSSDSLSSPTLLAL

ATF4 (human) [3] = biological target: ATF4 (human) (UniProt P18848); assay: FRET or BRET; direct-binding FRET in 384-well plates; rhodamine-labelled design (acceptor) titrated 0 to 1 uM into 10 nM fluorescein-labelled bZIP (donor); 150 mM KCl, 50 mM potassium phosphate pH 7.4, 0.1% Tween-20, 0.1% BSA; 37 °C
Sequence of ATF4 (human) (P18848 whole entry): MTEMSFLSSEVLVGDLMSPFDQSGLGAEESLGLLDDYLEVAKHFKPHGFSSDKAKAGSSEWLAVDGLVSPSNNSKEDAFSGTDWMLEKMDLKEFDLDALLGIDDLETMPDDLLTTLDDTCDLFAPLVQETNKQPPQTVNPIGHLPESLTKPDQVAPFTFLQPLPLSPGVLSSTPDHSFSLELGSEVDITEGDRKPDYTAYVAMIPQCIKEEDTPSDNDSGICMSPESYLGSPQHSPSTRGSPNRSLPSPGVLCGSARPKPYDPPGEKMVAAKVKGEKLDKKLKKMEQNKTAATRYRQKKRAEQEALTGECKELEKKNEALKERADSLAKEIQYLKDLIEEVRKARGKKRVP

JUN [4] = biological target: T2, JUN (Homo sapiens, UniProt P05412); assay: as above
T2 sequence (P05412 whole entry): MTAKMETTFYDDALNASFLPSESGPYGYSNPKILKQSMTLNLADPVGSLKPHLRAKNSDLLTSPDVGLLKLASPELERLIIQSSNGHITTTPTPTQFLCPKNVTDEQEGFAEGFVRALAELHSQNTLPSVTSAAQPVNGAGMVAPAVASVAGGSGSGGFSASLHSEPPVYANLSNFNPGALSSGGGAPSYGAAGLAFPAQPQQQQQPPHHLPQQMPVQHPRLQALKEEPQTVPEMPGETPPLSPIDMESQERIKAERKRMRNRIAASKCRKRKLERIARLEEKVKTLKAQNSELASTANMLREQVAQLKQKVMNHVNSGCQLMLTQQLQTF

JUN [5] = biological target: T2, JUN; assay: FRET or BRET; direct-binding FRET in 384-well plates; rhodamine-labelled design (acceptor) titrated 0 to 1 uM into 10 nM fluorescein-labelled bZIP (donor); 150 mM KCl, 50 mM potassium phosphate pH 7.4, 0.1% Tween-20, 0.1% BSA; 23 °C
ATF6B [6] = biological target: T3, ATF6B (Homo sapiens, UniProt Q99941); assay: FRET or BRET; direct-binding FRET in 384-well plates; rhodamine-labelled design (acceptor) titrated 0 to 1 uM into 10 nM fluorescein-labelled bZIP (donor); 150 mM KCl, 50 mM potassium phosphate pH 7.4, 0.1% Tween-20, 0.1% BSA; 37 °C
T3 sequence (Q99941 whole entry): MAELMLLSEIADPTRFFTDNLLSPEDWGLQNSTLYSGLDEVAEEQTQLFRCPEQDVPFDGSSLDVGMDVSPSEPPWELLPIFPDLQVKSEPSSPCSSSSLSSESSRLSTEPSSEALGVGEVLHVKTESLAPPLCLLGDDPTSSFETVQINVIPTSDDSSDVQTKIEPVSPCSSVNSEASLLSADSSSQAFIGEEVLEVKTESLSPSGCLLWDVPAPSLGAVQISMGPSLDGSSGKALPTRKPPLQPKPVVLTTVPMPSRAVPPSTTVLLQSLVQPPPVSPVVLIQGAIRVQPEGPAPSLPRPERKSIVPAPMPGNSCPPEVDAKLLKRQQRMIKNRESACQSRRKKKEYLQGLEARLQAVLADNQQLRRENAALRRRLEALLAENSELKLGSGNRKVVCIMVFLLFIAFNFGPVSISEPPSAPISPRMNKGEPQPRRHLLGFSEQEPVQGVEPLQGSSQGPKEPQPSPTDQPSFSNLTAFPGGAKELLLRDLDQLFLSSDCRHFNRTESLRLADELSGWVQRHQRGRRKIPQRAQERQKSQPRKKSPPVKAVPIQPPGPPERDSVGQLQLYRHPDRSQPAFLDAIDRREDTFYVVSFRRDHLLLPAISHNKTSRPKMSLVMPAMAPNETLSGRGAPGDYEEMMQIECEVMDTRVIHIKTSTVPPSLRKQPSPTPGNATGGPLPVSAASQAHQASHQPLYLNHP

[7] = biological target: Activating Transcription Factor (ATF) 3 (human) (UniProt P18847); assay: as above
CREB1 (human) = CREB1 (human) (UniProt P16220); assay: as above
FOS [8] = biological target: T1, FOS; assay: as above
MAFF (human) [9] = biological target: MAFF (human) (UniProt Q9ULX9); assay: as above
Sequence of MAFF (human) (Q9ULX9 whole entry): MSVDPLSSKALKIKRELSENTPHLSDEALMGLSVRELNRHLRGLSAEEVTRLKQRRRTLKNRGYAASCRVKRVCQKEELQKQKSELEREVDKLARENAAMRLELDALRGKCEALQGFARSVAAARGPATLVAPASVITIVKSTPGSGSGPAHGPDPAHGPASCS

MAFG = MAFG (Homo sapiens, UniProt O15525); assay: as above
Sequence of MAFG (O15525 whole entry): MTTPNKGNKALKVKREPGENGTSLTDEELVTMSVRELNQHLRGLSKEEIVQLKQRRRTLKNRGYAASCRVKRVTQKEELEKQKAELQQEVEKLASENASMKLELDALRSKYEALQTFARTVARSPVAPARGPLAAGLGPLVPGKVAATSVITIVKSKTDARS

NFE2 (human) = NFE2 (human) (UniProt Q16621); assay: as above
NFE2L3 (human) = NFE2L3 (human) (UniProt Q9Y4A8); assay: as above
Sequence of NFE2L3 (human) (Q9Y4A8 whole entry): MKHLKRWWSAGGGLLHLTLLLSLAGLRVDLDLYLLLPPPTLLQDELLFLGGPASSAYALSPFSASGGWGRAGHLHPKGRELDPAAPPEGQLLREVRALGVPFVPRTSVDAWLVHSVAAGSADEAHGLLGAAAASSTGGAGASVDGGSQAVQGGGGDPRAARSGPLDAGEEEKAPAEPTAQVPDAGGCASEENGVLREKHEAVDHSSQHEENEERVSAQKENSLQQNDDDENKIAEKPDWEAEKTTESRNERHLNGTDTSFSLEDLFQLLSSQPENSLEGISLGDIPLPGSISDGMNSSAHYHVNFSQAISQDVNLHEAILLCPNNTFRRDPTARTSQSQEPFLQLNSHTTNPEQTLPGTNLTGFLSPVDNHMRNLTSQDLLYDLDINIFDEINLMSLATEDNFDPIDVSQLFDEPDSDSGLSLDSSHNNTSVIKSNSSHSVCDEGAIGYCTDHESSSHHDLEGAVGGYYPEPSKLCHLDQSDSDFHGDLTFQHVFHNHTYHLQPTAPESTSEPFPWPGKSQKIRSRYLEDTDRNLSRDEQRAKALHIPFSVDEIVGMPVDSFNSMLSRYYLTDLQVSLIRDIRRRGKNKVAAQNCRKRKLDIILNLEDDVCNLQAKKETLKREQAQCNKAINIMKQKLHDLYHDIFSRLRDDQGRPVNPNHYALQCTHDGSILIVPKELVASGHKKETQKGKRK

[10] = biological target: X-box binding protein 1 (human) (UniProt P17861); assay: as above
Sequence of X-box binding protein 1 (human) (P17861 whole entry): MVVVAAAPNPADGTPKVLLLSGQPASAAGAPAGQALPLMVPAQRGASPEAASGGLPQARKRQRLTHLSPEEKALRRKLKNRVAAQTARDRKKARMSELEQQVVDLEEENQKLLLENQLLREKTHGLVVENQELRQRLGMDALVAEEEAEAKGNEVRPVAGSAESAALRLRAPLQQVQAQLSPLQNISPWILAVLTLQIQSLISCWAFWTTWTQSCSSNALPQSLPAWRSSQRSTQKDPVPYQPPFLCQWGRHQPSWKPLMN

ATF2 (human) = ATF2 (human) (UniProt P15336); assay: FRET or BRET; direct-binding FRET in 384-well plates; rhodamine-labelled design (acceptor) titrated 0 to 1 uM into 10 nM fluorescein-labelled bZIP (donor); 150 mM KCl, 50 mM potassium phosphate pH 7.4, 0.1% Tween-20, 0.1% BSA; 4 °C
ATF5 (human) = ATF5 (human) (UniProt Q9Y2D1); assay: as above
Sequence of ATF5 (human) (Q9Y2D1 whole entry): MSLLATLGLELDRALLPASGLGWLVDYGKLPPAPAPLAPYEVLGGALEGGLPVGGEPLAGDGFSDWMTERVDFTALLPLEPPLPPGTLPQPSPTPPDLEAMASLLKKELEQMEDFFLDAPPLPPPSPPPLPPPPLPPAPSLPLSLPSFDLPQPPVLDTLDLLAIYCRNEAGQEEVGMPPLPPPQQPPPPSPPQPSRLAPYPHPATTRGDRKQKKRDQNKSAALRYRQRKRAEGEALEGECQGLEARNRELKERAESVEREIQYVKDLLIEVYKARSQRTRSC

ATF6B [11] = biological target: T3, ATF6B; assay: as above
JUN [12] = biological target: T2, JUN; assay: as above
MAF [13] = biological target: T4, MAF (Homo sapiens, UniProt O75444); assay: as above
T4 sequence (O75444 whole entry): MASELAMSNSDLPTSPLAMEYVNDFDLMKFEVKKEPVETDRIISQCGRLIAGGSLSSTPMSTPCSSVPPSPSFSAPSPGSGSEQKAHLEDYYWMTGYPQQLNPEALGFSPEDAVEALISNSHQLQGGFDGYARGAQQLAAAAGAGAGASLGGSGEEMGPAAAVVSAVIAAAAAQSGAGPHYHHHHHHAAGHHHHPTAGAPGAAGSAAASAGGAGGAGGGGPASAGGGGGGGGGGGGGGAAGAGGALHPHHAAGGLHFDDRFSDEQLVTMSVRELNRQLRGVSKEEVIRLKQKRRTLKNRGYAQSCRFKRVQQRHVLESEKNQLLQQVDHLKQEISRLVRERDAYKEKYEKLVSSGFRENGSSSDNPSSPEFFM

MAFB [14] = biological target: T5, MAFB (Homo sapiens, UniProt Q9Y5Q3); assay: as above
T5 sequence (Q9Y5Q3 whole entry): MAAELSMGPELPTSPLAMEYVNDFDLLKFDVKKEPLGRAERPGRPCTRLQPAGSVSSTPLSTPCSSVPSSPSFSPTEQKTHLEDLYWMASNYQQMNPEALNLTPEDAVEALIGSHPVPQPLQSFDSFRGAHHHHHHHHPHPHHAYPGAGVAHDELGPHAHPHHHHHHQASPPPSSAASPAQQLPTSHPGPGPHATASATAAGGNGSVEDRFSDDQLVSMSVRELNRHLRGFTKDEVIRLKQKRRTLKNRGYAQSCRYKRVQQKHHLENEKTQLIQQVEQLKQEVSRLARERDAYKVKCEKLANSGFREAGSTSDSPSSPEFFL

MAFF (human) [15] = biological target: MAFF (human) (UniProt Q9ULX9); assay: as above
[16] = biological target: X-box binding protein 1 (human) (UniProt P17861); assay: as above
ATF4 (human) [17] = biological target: ATF4 (human) (UniProt P18848); assay: FRET or BRET; direct-binding FRET in 384-well plates; rhodamine-labelled design (acceptor) titrated 0 to 1 uM into 10 nM fluorescein-labelled bZIP (donor); 150 mM KCl, 50 mM potassium phosphate pH 7.4, 0.1% Tween-20, 0.1% BSA; 23 °C
ATF6B [18] = biological target: T3, ATF6B; assay: as above
MAF [19] = biological target: T4, MAF; assay: as above
MAFF (human) [20] = biological target: MAFF (human) (UniProt Q9ULX9); assay: as above
BATF (human) = BATF (human) (UniProt Q16520); assay: FRET or BRET; direct-binding FRET in 384-well plates; rhodamine-labelled design (acceptor) titrated 0 to 1 uM into 10 nM fluorescein-labelled bZIP (donor); 150 mM KCl, 50 mM potassium phosphate pH 7.4, 0.1% Tween-20, 0.1% BSA; 37 °C
Sequence of BATF (human) (Q16520 whole entry): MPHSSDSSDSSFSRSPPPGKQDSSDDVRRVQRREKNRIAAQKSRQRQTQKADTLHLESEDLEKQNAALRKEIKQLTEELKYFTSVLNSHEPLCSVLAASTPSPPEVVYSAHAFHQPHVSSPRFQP

BATF2 (human) = BATF2 (human) (UniProt Q8N1L9); assay: as above
Sequence of BATF2 (human) (Q8N1L9 whole entry): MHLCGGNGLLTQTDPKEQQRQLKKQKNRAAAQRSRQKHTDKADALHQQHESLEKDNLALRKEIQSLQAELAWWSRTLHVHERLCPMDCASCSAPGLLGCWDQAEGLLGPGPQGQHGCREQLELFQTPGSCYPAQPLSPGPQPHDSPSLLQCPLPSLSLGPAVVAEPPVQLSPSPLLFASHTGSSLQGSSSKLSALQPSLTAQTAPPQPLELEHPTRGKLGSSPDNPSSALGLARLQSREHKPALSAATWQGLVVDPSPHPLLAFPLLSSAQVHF

MAFB [21] = biological target: T5, MAFB; assay: as above
[22] = biological target: off-target bZIPs of XBP1-d1 (among the 32 C-terminally fluoresceinated human bZIPs tested) (human); assay: FRET or BRET; direct-binding FRET at 37°C; 10 nM fluorescein-labelled bZIP (donor), rhodamine-labelled design (acceptor) titrated 0 to 1 μM; 150 mM KCl, 50 mM potassium phosphate pH 7.4, 0.1% Tween-20, 0.1% BSA
[23] = biological target: T6, X-box binding protein 1 (XBP1) bZIP construct, C-terminally fluoresceinated (human, UniProt P17861 70-133, fluorescein at the C-terminus); assay: as above; conditions: both partners purified
T6 construct: source: previously described, donated by A.W. Reinke [18]
T6 sequence (looked up): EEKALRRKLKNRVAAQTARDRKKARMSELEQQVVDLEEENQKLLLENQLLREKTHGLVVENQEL

B1: JUN-d1 labeled at the C-terminus (designed binder)
chain: GESKEYKKGSGSSIAATLEKEEANLEKMNKKLAAEIESLLKEKDKLESVLNYHEGC
modifications: also: Cys56: Rhodamine Red C2-maleimide or fluorescein-5-maleimide, by assay
Kd [1]: > 5000 nM | Kd (DBP (human)): > 5000 nM | Kd (FOS [2]): > 5000 nM | Kd (ATF4 (human) [3]): 557 nM and 529 nM and 543 nM | Kd (JUN [4]): 5.3 nM and 5.5 nM and 6.6 nM | Kd (JUN [5]): 1.1 nM and 1.2 nM and 1 nM | Kd (ATF6B [6]): > 5000 nM | Kd [7]: > 5000 nM | Kd (CREB1 (human)): > 5000 nM | Kd (FOS [8]): > 5000 nM | Kd (MAFF (human) [9]): > 5000 nM | Kd (MAFG): > 5000 nM | Kd (NFE2 (human)): > 5000 nM | Kd (NFE2L3 (human)): > 5000 nM | Kd [10]: > 5000 nM

B2: ATF5-d1 labeled at the N-terminus (designed binder)
chain: GESKEYKKGSGSC(Rhodamine Red C2‑maleimide)GKRIAYLRQRIAELRNENHVLESRIQRMEKEKDALQQDRDHLEYEL
Kd (ATF2 (human)): > 5000 nM | Kd (ATF5 (human)): 2.9 nM and 6.9 nM | Kd (ATF6B [11]): > 5000 nM | Kd (JUN [12]): > 5000 nM | Kd (MAF [13]): > 5000 nM | Kd (MAFB [14]): > 5000 nM | Kd (MAFF (human) [15]): > 5000 nM | Kd [16]: > 5000 nM | Kd (ATF4 (human) [17]): 8.5 nM | Kd (ATF6B [18]): > 5000 nM | Kd (MAF [19]): > 5000 nM | Kd (MAFF (human) [20]): > 5000 nM | Kd (BATF (human)): > 5000 nM | Kd (BATF2 (human)): > 5000 nM | Kd (FOS [8]): > 5000 nM | Kd (MAFB [21]): > 5000 nM | Kd (MAFF (human) [9]): 116 nM

B3: XBP1-d1, rhodamine-labelled at the C-terminus (designed binder)
chain: GESKEYKKGSGSEREAQLENRVAHLKEKNQELKAQNLHLKEALSEAQNRNQELKNDAGC(Rhodamine Red C2‑maleimide)
notes: solubility linker after the His tag; added at the C-terminus for labelling; built from heptads of native and previously designed bZIPs; source: E. coli RP3098, purified (Ni-NTA under denaturing conditions, reverse-phase HPLC)
Kd [22]: > 5000 nM | Kd [23]: 172 ± 65 nM
